B1: CD70-specific nanobody fusion protein ABDB6 (other)
chain: HHHHHHQVQLQESGGGSVQAGGSLRLSCVASDLIVNDGCMAWFRQVPGKEHEGVARIAIPTTPGSTLYADSVKGRFTISRDGAKNTLYLQMNSLKPEDTAVYYCAADQWASRGCTAIATIPAEFDYWGQGTQVTVSSGGGGSGGGGSGGGGSLAEAKVLANRELDKYGVSDFYKRLINKAKTVEGVEALKLHILAALPGGGGSLLQS
notes: 7
B2: [^68Ga]Ga-NOTA-B6: human CD70-specific 68Ga-labeled monovalent nanobody probe, B6 modified with p-SCN-Bn-NOTA (conjugate)
VHH: QVQLQESGGGSVQAGGSLRLSCVASDLIVNDGCMAWFRQVPGKEHEGVARIAIPTTPGSTLYADSVKGRFTISRDGAKNTLYLQMNSLKPEDTAVYYCAADQWASRGCTAIATIPAEFDYWGQGTQVTVSSGGGGSGGGGSLLQSHHHHHH
B3: CD70-specific nanobody fusion protein ABDB3 (other)
chain: HHHHHHQVQLQESGGGSVQAGGSLRLSCAASGIIVNDGCMAWFRQVPGKEREGVAGIVIGEYGGGTTYYADSVKGRFTISRDRAKNTLYLQMNSLKPEDTAMYYCAADQWASGGCTSIATFSDEFDYWGQGTQVTVSSGGGGSGGGGSGGGGSLAEAKVLANRELDKYGVSDFYKRLINKAKTVEGVEALKLHILAALPGGGGSLLQS
notes: 5
B4: CD70-specific nanobody B3 (VHH)
VHH: QVQLQESGGGSVQAGGSLRLSCAASGIIVNDGCMAWFRQVPGKEREGVAGIVIGEYGGGTTYYADSVKGRFTISRDRAKNTLYLQMNSLKPEDTAMYYCAADQWASGGCTSIATFSDEFDYWGQGTQVTVSS
notes: Monovalent nanobody expressed in E. coli from pET-30a(+); any vector-derived tag is not described
B5: CD70-specific nanobody B6 (VHH)
VHH: QVQLQESGGGSVQAGGSLRLSCVASDLIVNDGCMAWFRQVPGKEHEGVARIAIPTTPGSTLYADSVKGRFTISRDGAKNTLYLQMNSLKPEDTAVYYCAADQWASRGCTAIATIPAEFDYWGQGTQVTVSS
notes: as for B4

How the values were obtained:
[1] = target: T1, extracellular domain of human recombinant CD70 (human, UniProt P32970 39-193); assay: SPR (Biacore), CD70 extracellular domain immobilised, fusion protein as mobile phase
T1 construct: extracellular domain; Immobilised on Biacore chips; also called human CD70; CD27 ligand
T1 sequence (looked up): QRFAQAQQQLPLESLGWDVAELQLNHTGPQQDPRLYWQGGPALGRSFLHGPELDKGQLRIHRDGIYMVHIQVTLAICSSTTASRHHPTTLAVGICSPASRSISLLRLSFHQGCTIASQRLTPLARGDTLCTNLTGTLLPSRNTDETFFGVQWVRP

[2] = target: T2, recombinant human serum albumin (human, UniProt P02768 25-609); assay: SPR (Biacore), recombinant human serum albumin immobilised, fusion protein as mobile phase
T2 construct: Immobilised on Biacore chips

[3] = target: T3, recombinant murine serum albumin (murine, UniProt P07724 25-608); assay: SPR (Biacore), recombinant murine serum albumin immobilised, fusion protein as mobile phase
T3 construct: Immobilised on Biacore chips

RCC models (No. 62 PDX) = tested on: RCC models (No. 62 PDX); parameters: species or system mice; conditions: mouse, in vivo
From the text: Renal cell carcinoma (RCC) patient-derived xenograft (PDX) models, No. 62 PDX, positive in expression of CD70 were identified by immunohistochemical (IHC) staining using an antihuman CD70 monoclonal antibody (E3Q1A, 69209, Cell Signaling Technology) as a primary antibody, as shown in FIG. 3. RCC PDX models were established by subcutaneously inoculating 2mm×2mm×2mm No. 62 PDX tissue chunks into right shoulder of NCG (NOD-Prkdcem26Cd52Il2rgem26Cd22/Nju) mice.
PET/CT images of small animals involved in these tests were all captured using an IRIS small-animal PET/CT scanner (Inviscan Imaging Systems). Each murine model (three in each group) was injected with 3.7-7.4 MBq of [^68Ga]Ga-NOTA-B3 or [^68Ga]Ga-NOTA-B6 via the tail vein. One hour after the injection, the mice were anesthetized with isoflurane mixed in oxygen (at a concentration of 2%). After being deeply anesthetized, the mice were placed supine on the PET/CT scanning bed, and PET and CT images were captured sequentially. […]
The same operations as in step 2) above were performed. […] ROI uptake in the tumor and major tissues and organs (heart, liver, lungs, kidneys, muscles, spleen and bones) was analyzed and plotted against time. […]

[4] = target: T1, extracellular domain of human …; assay: SPR (Biacore), CD70 extracellular domain immobilised, nanobody as mobile phase

T2 sequence (P02768 25-609 limits assumed): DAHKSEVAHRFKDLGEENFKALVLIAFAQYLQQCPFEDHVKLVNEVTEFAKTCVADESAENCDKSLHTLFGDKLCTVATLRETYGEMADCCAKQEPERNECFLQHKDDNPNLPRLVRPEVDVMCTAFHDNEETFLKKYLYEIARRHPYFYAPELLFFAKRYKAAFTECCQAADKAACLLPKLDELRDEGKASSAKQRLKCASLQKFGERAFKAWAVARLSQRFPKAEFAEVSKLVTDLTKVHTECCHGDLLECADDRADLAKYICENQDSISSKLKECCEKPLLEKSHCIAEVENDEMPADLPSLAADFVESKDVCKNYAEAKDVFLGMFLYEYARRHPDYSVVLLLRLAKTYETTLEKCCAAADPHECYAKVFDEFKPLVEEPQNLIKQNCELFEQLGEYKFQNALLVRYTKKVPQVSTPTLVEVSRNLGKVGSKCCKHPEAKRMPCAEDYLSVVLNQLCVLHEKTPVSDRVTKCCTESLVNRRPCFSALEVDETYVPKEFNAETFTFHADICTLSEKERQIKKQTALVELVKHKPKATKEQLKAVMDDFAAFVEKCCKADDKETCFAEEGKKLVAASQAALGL

Molecule	Kd [1] [pM]	Kd [2] [pM]	Kd [3] [pM]	uptake in the major excretory (kidneys) and metabolic (liver) organs (RCC models (No. 62 PDX))	Kd [4] [pM]
B1	135	88.5	454	–	–
B2	–	–	–	high nonspecific uptake	–
B3	110	74.2	380	–	–
B4	–	–	–	–	5690
B5	–	–	–	–	3730

Reference: EP4628506A1, “PREPARATION METHOD FOR AND USE OF CD70-SPECIFIC INTEGRATED DIAGNOSIS AND TREATMENT MOLECULAR IMAGING PROBE” (Renji Hospital, Shanghai Jiao Tong University School of …, priority 2022, dated 2024)
